From US20100047253A1
Blank lines part the entries; values can stand above or below the binder they belong to.

Assays:
[1] = target: IL-13 variant IL-13Q110R (human) (UniProt P35225); test: SPR (Biacore 2000), mAb captured on goat anti-human surface, IL-13 variant (Peprotech) 23.6-0.185 nM, 1:1 model
[2] = target: IL-13 variant IL-13Q110R (human) (UniProt P35225); test: cell-based or functional assay
[3] = target: human IL-13 (source not stated for the assay) (human) (UniProt P35225); test: cell-based or functional assay
Sequence of human IL-13 (source not stated for the assay) (human) (P35225 35-146 limits assumed): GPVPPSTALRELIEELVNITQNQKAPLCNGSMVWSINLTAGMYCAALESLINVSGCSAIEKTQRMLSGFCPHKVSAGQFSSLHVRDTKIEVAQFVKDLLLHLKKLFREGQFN

Sequence of IL-13 variant IL-13Q110R (human) (P35225 33-146, stated change not applied): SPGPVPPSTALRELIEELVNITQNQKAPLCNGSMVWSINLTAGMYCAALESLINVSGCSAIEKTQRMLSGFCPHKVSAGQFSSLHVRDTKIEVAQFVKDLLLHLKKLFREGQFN

Kd [1]: 0.0098 nM | koff [1]: 5.02e-05 s⁻¹ | kon [1]: 5.11e+06 M⁻¹ s⁻¹ | IC50, eotaxin production by HDFa cells, 300 pM IL-13Q110R [2]: 54 pM | IC50, eotaxin production by HDFa cells, 600 pM IL-13Q130R [2]: 140 pM
B1: mAb 731 (antibody, V domains shown)
VH: EVQLLESGGGLVQPGGSLRLSCAASGFTFSSYAMSWVRQAPGKGLEWVSAFSGSGGSTYYADSVKGRFTISRDNSKNTLYLQMNSLRAEDTAVYYCVQDGLGPYFYNYGMDVWGQGTTVTVSS
VL: SYELTQPPSVSVSPGQTASITCSGDKLGDKYACWFQQKPGQSPVLVIYHDSKRPSGIPERFSGSNSGDTATLTISGTQAMDEADYYCQAWDSSTYVFGTGTKVTVLG

Kd [1]: 0.0388 nM | koff [1]: 0.000218 s⁻¹ | kon [1]: 5.62e+06 M⁻¹ s⁻¹ | IC50, eotaxin production by HDFa cells, 300 pM IL-13Q110R [2]: 106 pM | IC50, eotaxin production by HDFa cells, 600 pM IL-13Q130R [2]: 277 pM
B2: mAb 623 (antibody, V domains shown)
VH: EVQLVESGGGLVKPGGSLRLSCAASGFTFSNAWMSWVRQAPGKGLEWVGRIRSEIDGGTTNYAAPVKGRFTISRDDSKNTLYLQMNSLKTEDTAVYYCATDQVGAYYGDYYGMDVWGQGTTVTVSS
VL: SYELTQPPSVSVSPGQTARITCSGDALPEKYAYWYQQKSGQAPVLVIYEDSKRPSGIPERFSGSSSGTMATLTISGAQVEDEADYYCHSTDSSGNHGVFGGGTKLTVLG

IC50, IL-13 induced eotaxin release, Average [3]: 0.032 nM | IC50, IL-13 induced eotaxin release, n = 1 [3]: 0.029 nM | IC50, IL-13 induced eotaxin release, n = 2 [3]: 0.039 nM | IC50, IL-13 induced eotaxin release, n = 3 [3]: 0.029 nM
B3: murine IL-13 receptor α2/FC (Fc fusion, mouse, UniProt O88786 22-334, looked up, not shown: a dimerising Fc or GST)
chain: LEIKVNPPQDFEILDPGLLGYLYLQWKPPVVIEKFKGCTLEYELKYRNVDSDSWKTIITRNLIYKDGFDLNKGIEGKIRTHLSEHCTNGSEVQSPWIEASYGISDEGSLETKIQDMKCIYYNWQYLVCSWKPGKTVYSDTNYTMFFWYEGLDHALQCADYLQHDEKNVGCKLSNLDSSDYKDFFICVNGSSKLEPIRSSYTVFQLQNIVKPLPPEFLHISVENSIDIRMKWSTPGGPIPPRCYTYEIVIREDDISWESATDKNDMKLKRRANESEDLCFFVRCKVNIYCADDGIWSEWSEEECWEGYTGPDSK

EC50, HDLM-2 proliferation assay (3H-thymidine) [3]: 0.6 nM | EC50, L-1236 proliferation assay (3H-thymidine) [3]: 0.059 nM | IC50, IL-13-induced CD23 expression on whole blood B cells (FACS) [3]: 4 nM | IC50, IL-13 induced eotaxin release, Average [3]: 0.131 nM | IC50, IL-13 induced eotaxin release, n = 1 [3]: 0.128 nM | IC50, IL-13 induced eotaxin release, n = 2 [3]: 0.147 nM | IC50, IL-13 induced eotaxin release, n = 3 [3]: 0.119 nM
B4: human IL-13 receptor α2/Fc (Fc fusion, UniProt Q14627 27-343, looked up, not shown: a dimerising Fc or GST)
chain: DTEIKVNPPQDFEIVDPGYLGYLYLQWQPPLSLDHFKECTVEYELKYRNIGSETWKTIITKNLHYKDGFDLNKGIEAKIHTLLPWQCTNGSEVQSSWAETTYWISPQGIPETKVQDMDCVYYNWQYLLCSWKPGIGVLLDTNYNLFYWYEGLDHALQCVDYIKADGQNIGCRFPYLEASDYKDFYICVNGSSENKPIRSSYFTFQLQNIVKPLPPVYLTFTRESSCEIKLKWSIPLGPIPARCFDYEIEIREDDTTLVTATVENETYTLKTTNETRQLCFVVRSKVNIYCSDDGIWSEWSDKQCWEGEDLSKKTLLR
